We go through 2 molecules from patent US20210032353A1 (NATIONAL HEALTH RESEARCH INSTITUTES, published 2021).

The target in experiment [1] is T1, VEGFR3 IgD5 (individual recombinant immunoglobin-like domain 5 of VEGFR3) (UniProt P35916 422-552, limits assumed).
T1 construct: domain: IgD5
T1 sequence (looked up): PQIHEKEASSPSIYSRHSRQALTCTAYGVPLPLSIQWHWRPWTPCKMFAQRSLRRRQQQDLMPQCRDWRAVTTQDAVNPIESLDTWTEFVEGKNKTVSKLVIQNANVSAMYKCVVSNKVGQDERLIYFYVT
In words: cell-based competitive ELISA: R2C7-1 absorbed with the soluble domain, then bound to 293T/VEGFR3 cells, OD405. The method, then:
(§1) Panel A, Cell-based competitive. ELISA. HEK293T cells expressing VEGFR3 (293T/VEGFR3) were coated in 96-well plates. The optimal concentrations of R2C7-1 and R2C9-11 mAbs were determined as described previously (data now shown). The optimal concentrations of R2C7-1 and R2C9-11 mAbs were absorbed with the designed doses of the individual immunoglobin-like domains of VEGFR3 (R3-IgDs) antigens, as indicated. The bound antibodies were immune-probed with secondary antibody conjugated with HRP, visualized by addition of ABTS, and measured at OD₄₀₅ using a microplate reader (SpectraMax). Data are represented as means±S.D. of percentage of isotype control (CTL) in triplicate. The epitope locations of R2C7-1 and R2C9-11 on the VEGFR3 antigen are indicated by the black lines spanning IgD6 in the schematics. Panel B, Native gel electrophoresis. The whole extracellular domain (R3-IgD1-7), domain 3-4 (R3-IgD3-4) and domain 6-7 (R3-IgD6-7) were constructed, expressed in the E. coli, and purified using the anti-Myc affinity purification system. The purity and molecular weight of each recombinant protein were visualized with a standard Western blot using anti-Myc antibody as probe (left). The binding of R2C7-1 and R2C9-11 to the VEGFR3 truncated antigens was evaluated with native gel electrophoresis to confirm the epitopes of R2C7-1 and R2C9-11 mAbs (middle and right, respectively).
(§2) The same methodology was adopted to define the epitopes of the antibodies on VEGFR3. To determine the optimal concentrations of the antibodies for VEGFR3, HEK293T/VEGFR3 transfectants were used as targets (data not shown). Subsequently, the antibodies with optimal concentrations were absorbed with individual recombinant extracellular domains of VEGFR3 (R3-IgDs) for competing the binding epitopes. Similarly, their major epitopes were both located in IgD6, but not in IgD7, of VEGFR3. To conform this finding, Western blotting analysis of different recombinant IgD proteins was carried out using native gel electrophoresis.
For orientation: In an ELISA, binding on a coated surface is turned into a signal by an enzyme label.

For experiment [2], the target named is T2, R3-IgD7 (human, UniProt P35916).
T2 construct: recombinant fragment; also called immunoglobin-like domain 7 of VEGFR3
T2 sequence (receptor fragment, looked up): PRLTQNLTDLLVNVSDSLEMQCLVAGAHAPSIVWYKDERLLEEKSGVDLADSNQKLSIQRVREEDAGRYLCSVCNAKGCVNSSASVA
The description is as above. The method, then:
as §1, §2

The target in experiment [3] is T3, R3-IgD4 (human, UniProt P35916).
T3 construct: recombinant fragment; also called immunoglobin-like domain 4 of VEGFR3
T3 sequence (receptor fragment, looked up): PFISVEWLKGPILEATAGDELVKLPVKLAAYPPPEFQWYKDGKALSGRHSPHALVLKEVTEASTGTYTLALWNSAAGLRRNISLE
The experiment is described as above. The method, then:
as §1, §2

Another experiment concerns the target T4, VEGFR3 IgD3-4 (UniProt P35916 219-415, limits assumed).
T4 construct: domain: IgD3-4; also called VEGFR3-ED Ig D3-4-myc; not shown: myc tag (pCMV6-XL6-myc vector)
T4 sequence (looked up): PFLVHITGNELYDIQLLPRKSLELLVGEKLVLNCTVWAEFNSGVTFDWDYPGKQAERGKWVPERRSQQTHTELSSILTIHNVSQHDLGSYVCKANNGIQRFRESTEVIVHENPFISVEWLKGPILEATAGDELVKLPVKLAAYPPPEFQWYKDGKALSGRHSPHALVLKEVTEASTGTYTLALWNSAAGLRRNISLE
In words: native PAGE of the purified myc-tagged fragment, blot probed with R2C9-11. How it is done:
as §1, with “FIG. 11 is a set of graphs showing determination of the binding epitopes of R2C7-1 and R2C9-11 antibodies on VEGFR3 antigen. Panel A,” for “Panel A,”, “purification system. […] The binding” for “purification system. The purity and molecular weight of each recombinant protein were visualized with a standard Western blot using anti-Myc antibody as probe (left). The binding”, “right, respectively). […]” for “right, respectively).”

In experiment [4] the target is T2, R3-IgD7. In words: cell-based competitive ELISA: R2C9-11 absorbed with the soluble domain, then bound to 293T/VEGFR3 cells, OD405. How it is done: as §1, §2
For experiment [5], the target named is T3, R3-IgD4. The description is as above. The method, then: as §1, §2

B1: R2C7-1 monoclonal antibody (antibody, V domains shown)
VH: EVQLQQSGPELVKPGASVKISCKASGYSFTDYFINWVIQRHGKSLEWVGRINPYNGGSFYNQKFKDKATLTVDKSSNIAHMELRSLASEDSAIYYCARSGGNGYDYWGQGTTLTVSS
VL: DIVMTQAAPSVPVIPGESVSISCRSSKSLLHSNGNTYLYWFLQRPGQSPQLLIYRMSNLASGVPDRFSGSGSGTAFTLRISRVEAEDVGVYYCMQHLEYPYTFGGGTKVEIK
notes: Mouse monoclonal antibody purified from hybridoma supernatant; An IgG2a isotype antibody served as its control; also called R2C7-1 mAb
Take B1: the binding result (in experiment [1]; with R3-IgD7 [2]; with R3-IgD4 [3]) was “no binding (tested: 10 (unit not printed on the sheet))” throughout.

B2: R2C9-11 monoclonal antibody (antibody, V domains shown)
VH: QVQLQQPGAELVKPGASVKLSCKASGYTFTSYWMHWVKQRPGQGLEWIGEINPSNGRTNYNEKFKSKATLTVDKSSSTAYMQLSSLTSEDSAVYYCANLYFDVWGAGTTVTVSS
VL: DIVMTQSPSSLSVSAGEKVTMSCKSSQNLLNSGNQKYYLAWYQQKPGQPPKLLIYGASIRESGVPDRFIGSGSGTDFTLTISSVQAEDLAVYFCQSDHSYPYTFGGGTKLEIK
notes: Mouse monoclonal antibody purified from hybridoma supernatant; An IgG2a isotype antibody served as its control; also called R2C9-11 mAb
Turning to B2, the results for the binding result with VEGFR3 IgD3-4, with R3-IgD7 [4] and with R3-IgD4 [5] were “no binding”, “no binding (tested: 10 (unit not printed on the sheet))” and “no binding (tested: 10 (unit not printed on the sheet))”, respectively.
